Test systems include HapR (Vibrio cholerae); LeuO (Vibrio cholerae); H-NS (Vibrio cholerae).
What all share (assay): EMSA
Holding throughout (conditions): buffer, room temperature
In general terms: A gel shift assay detects complexes by their altered migration in electrophoresis.

Here are results for three substances from PMC5777889.

vieSAB promoter -198 to +70: the Kd in the data set on HapR (Vibrio cholerae) stood at 174 nM.

For vieSAB promoter, El Tor biotype (EMSA), the Kd in the data set on LeuO (Vibrio cholerae) turned out to be 31.2 nM; in the data set on H-NS (Vibrio cholerae) it was 52.3 nM. Consider “vieSAB promoter, classical biotype (EMSA)”, for which the Kd with LeuO (Vibrio cholerae) is 31.2 nM; in the data set on H-NS (Vibrio cholerae), 44.1 nM.

One may read the Kd as the equilibrium constant for the complex coming apart. Lower therefore signals higher affinity.
